From PMC7614001
Values belong to the binder of their own block, whether it stands above or below them.

Legend:
[1] = molecular target: T1, ALK2 ECD (Homo sapiens), Q04771; assay: BLI; conditions: remark: other sources report otherwise
T1 chain: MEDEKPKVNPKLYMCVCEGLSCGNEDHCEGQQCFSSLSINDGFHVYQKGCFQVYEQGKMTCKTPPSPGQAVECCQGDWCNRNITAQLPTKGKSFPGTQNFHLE

[2] = molecular target: T2, ALK3 ECD (Homo sapiens), P36894; assay: BLI; conditions: remark: other sources report otherwise
T2 chain: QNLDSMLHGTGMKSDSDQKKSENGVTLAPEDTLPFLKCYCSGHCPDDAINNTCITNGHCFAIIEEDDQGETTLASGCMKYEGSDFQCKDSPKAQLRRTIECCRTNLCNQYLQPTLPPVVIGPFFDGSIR

Kd [1]: 133 nM
B1: BMP-9, Q9UK05 (protein)
chain: SAGAGSHCQKTSLRVNFEDIGWDSWIIAPKEYEAYECKGGCFFPLADDVTPTKHAIVQTLVHLKFPTKVGKACCVPTKLSPISVLYKDDMGVPTLKYHYEGMSVAECGCR

Kd [1]: 18.4 nM
Kd [2]: 19 nM
B2: BMP-7, P18075 (protein)
chain: STGSKQRSQNRSKTPKNQEALRMANVAENSSSDQRQACKKHELYVSFRDLGWQDWIIAPEGYAAYYCEGECAFPLNSYMNATNHAIVQTLVHFINPETVPKPCCAPTQLNAISVLYFDDSSNVILKKYRNMVVRACGCH
